Values quoted from earlier work as cited in PMC6399403.
Like-named read-outs stand apart in the source and are kept apart here.

Tests used:
CD155 (Homo sapiens) [1] = target: CD155 (Homo sapiens) (UniProt P15151)
CD155 (Homo sapiens) [2] = target: CD155 (Homo sapiens) (UniProt P15151); remark: listed apart in the source

Kd (CD155 (Homo sapiens) [1])	Kd (CD155 (Homo sapiens) [2])	Substance
0.001 µM		TIGIT (from UniProt Q495A1)
	0.1 µM	CD226 (from UniProt Q15762)
